# Legend:
# HUVECs [1] = test: uptake of biotin-tagged peptides by HUVECs, flow cytometry; format: cell-based, human; settings: biotin-tagged peptide, 2 hours incubation
# Description: Next, EC uptake of the peptides by HUVECs was determined. Both DUF2C5 and CT23 were designed to have high pI (pH at which the molecules carry no net charge), pI 12.1 and 10.4, respectively; thus, in neutral pH, both peptides have a positive charge important for cellular uptake (Jones, et al. (2005) Br. J. Pharmacol. 145:1093-1102). DUF2C5 and CT23 were synthesized with a biotin-tag and visualized using streptavidin-[…].
# HUVECs [2] = test: VEGF-induced proliferation, WST-1 assay; format: cell-based, human; settings: 3 μmol/L
# Description: VEGF-induced proliferation and viability of HUVECs were assessed by the WST-1 assay (Roche) as previously described (Cai, et al. (2006) Microvasc. Res. 71:20-31; Jones, eta 1. (2005) Br. J. Pharmacol. 145:1093-102). […] Then HUVECs were stimulated with VEGF (2.2 nmol/L), with and without DUF2C5 (1, 3, and 10 μmol/L), or negative control peptide (CT23, 3 μmol/L) for 48 hours to test VEGF-induced proliferation by WST-1 assay in a 96-well format.
# The effects of DUF2C5 on VEGF-induced proliferation were subsequently determined by the WST-1 assay.
# [3] = test system: choroidal neovascularization; test: laser-induced choroidal neovascularization (CNV); format: in vivo, mouse; settings: eye drop, 2 μg/eye daily
# Description: FIG. 5A and FIG. 5B show the effect of DUF2C5 treatment on laser-induced CNV. FIG. 5A, Dose-dependent effect of DUF2C5 was tested by intravitreal injection of DUF2C5 0.5 μg, 2 μg, and 10 μg after laser photocoagulation. Neovascularization was assessed by the area of ILB4-staining, and plotted in the graph (N=5 mice in each group, and 4 laser burns were induced in each mouse). Asterisks indicate p<0.05, One-way ANOVA. FIG. 5B, Effect of DUF2C5 as an eye drop was tested in CNV model. After laser photocoagulation, mice were treated daily with either control peptide (2 μg/eye) or DUF2C5 (2 μg/eye) for […]. Neovascularization was assessed by the area of ILB4-staining, and plotted in the graph (N=7 mice in each group, and 4 laser burns were induced in each mouse). Asterisks indicate p<0.05, t-test. […]
# Choroidal neovascularization was evaluated by ocular coherence tomography (OCT) and fluorescein angiography at day 7 and 14. […]
# The experiments were terminated at day 14 after taking images of OCT and angiography. […] The area of vascular leakage and CNV was quantified using confocal image of CNV staining for lectin B4 using MetaMorph software. Data was plotted and analyzed statistically with Prism 6 (Graph Pad, San Diego Calif.). […]
# The effect of DUF2C5 as an eye drop was subsequently tested. […] Neovascularization was assessed by OCT, fluorescein angiography, and staining with ILB4.
# EGFR = target: T1, EGFR (Homo sapiens, UniProt P00533); test: pull-down on streptavidin beads followed by mass spec analysis; format: binding; settings: peptide immobilized on streptavidin beads
# T1 construct: endogenous in cells
# Description: (§1) Additionally, the sequence of DUF2C5 is highly conserved in mammalian KIF13B. […] To further test the specificity of DUF2C5, pull-down of proteins was conducted using DUF2C5 or control peptide (CT23) immobilized on streptavidin beads followed by mass spec analysis of the binding proteins. This analysis detected the presence of KIF13B, VEGFR2, and co-receptor NRP1 (number of hits were 28, 11, and 5, respectively). Tie2, Par1, S1PR1, and FGFR were not found. Other cargo for KIF13B (e.g., CentA, hDlg) were also not found. […] The affinity of each receptor tyrosine kinase was subsequently tested via surface plasmon resonance (SPR) with BIACORE (UIC, RRC), using DUF2C5 and CT23 on an avidin-coated chip, and recombinant cytosolic domain of kinases (Fisher Scientific).
# PDGFRα = target: T2, PDGFRα (Homo sapiens, UniProt P16234); test: as above; format: binding; settings: peptide immobilized on streptavidin beads
# T2 construct: endogenous in cells
# T2 sequence (P16234 24-1089): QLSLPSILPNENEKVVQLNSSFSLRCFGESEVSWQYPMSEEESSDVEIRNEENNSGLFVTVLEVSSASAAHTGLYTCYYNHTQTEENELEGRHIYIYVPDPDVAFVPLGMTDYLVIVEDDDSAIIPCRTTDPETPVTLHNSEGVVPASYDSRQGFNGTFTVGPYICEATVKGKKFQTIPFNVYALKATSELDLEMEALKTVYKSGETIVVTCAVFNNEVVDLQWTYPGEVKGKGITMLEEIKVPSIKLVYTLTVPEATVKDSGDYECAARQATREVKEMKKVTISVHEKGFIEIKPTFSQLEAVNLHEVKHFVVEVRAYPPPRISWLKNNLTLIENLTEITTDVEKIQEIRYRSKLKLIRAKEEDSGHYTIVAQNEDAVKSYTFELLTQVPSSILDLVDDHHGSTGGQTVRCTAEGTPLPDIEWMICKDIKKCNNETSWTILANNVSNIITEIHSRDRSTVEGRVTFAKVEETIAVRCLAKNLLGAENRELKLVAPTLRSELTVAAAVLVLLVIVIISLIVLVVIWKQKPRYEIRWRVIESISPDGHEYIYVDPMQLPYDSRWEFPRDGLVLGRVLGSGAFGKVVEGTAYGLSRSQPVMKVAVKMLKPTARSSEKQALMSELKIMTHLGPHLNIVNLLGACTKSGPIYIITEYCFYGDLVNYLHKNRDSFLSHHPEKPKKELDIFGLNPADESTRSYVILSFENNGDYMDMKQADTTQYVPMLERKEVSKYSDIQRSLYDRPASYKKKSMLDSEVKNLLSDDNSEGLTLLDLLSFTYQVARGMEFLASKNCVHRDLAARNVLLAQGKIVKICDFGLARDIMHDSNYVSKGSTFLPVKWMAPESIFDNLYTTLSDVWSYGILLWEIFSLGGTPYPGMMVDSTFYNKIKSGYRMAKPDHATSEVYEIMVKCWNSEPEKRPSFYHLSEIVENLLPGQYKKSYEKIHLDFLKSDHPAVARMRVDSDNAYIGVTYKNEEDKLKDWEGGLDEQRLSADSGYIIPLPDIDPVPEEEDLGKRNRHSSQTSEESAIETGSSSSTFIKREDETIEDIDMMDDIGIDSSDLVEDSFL
# Description: as §1
# PDGFRβ = target: T3, PDGFRβ (Homo sapiens, UniProt P09619); test: as above; format: binding; settings: peptide immobilized on streptavidin beads
# T3 construct: endogenous in cells
# T3 sequence (P09619 33-1106): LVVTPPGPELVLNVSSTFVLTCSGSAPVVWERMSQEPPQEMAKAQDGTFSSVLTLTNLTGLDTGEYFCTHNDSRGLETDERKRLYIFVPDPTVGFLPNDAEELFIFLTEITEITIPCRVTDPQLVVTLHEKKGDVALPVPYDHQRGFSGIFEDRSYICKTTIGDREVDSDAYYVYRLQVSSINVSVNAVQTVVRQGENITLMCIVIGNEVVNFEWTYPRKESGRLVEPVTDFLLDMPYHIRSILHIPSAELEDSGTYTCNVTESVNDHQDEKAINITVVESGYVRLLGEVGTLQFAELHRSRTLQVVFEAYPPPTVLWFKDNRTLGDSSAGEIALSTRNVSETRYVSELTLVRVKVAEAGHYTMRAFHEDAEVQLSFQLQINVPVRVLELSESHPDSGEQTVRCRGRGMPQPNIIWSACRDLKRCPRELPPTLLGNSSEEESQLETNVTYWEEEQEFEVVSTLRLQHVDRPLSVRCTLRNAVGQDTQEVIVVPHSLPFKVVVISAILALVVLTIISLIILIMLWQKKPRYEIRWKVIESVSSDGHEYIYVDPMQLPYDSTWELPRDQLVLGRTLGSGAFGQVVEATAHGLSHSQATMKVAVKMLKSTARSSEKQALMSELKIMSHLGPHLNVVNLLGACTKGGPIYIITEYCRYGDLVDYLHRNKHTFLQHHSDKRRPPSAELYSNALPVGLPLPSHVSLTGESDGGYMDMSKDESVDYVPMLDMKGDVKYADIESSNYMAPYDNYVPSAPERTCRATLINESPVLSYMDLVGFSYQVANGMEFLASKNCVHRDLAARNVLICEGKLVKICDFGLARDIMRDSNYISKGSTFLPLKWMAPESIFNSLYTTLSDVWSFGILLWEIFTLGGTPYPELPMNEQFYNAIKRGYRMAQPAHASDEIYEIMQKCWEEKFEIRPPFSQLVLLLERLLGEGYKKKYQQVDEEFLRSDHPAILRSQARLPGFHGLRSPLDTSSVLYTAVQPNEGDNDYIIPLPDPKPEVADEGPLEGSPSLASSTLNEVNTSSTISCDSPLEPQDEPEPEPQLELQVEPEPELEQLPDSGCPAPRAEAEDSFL
# Description: as §1
# VEGFR2 = VEGFR2 (Homo sapiens, UniProt P35968); test: surface plasmon resonance (SPR) with BIACORE; format: binding; parameters: recombinant cytosolic domain of kinases (Fisher Scientific); purchased Fisher Scientific; settings: peptide on avidin-coated chip, recombinant cytosolic domain of kinase
# Sequence of VEGFR2 (P35968 786-1356 limits assumed, species assumed): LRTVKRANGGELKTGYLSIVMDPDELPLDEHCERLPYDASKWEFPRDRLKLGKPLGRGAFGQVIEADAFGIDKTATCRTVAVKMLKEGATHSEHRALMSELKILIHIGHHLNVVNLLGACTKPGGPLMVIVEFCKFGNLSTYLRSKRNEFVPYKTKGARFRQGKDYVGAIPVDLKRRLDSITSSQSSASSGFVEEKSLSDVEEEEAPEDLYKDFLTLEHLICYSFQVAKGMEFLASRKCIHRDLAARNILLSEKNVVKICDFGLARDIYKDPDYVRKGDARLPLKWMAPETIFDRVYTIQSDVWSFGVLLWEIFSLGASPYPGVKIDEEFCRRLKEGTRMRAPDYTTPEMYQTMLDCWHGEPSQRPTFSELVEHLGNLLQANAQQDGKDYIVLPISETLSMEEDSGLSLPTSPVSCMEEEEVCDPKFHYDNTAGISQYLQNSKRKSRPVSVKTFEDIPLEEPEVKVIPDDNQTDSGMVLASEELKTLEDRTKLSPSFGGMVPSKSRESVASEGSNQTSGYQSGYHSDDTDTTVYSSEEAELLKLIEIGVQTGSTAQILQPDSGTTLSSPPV
# Description: as §1
substance,measurement,setting,value
"CT23: negative control, C-terminal 23-amino acid peptide, residues 1650 to 1672 of KIF13B (RVRASELRSFSRMLAGDPGCSPG)",uptake of the peptides by HUVECs,HUVECs [1],shown to internalize
same,VEGF-induced proliferation,HUVECs [2],had no effect
same,neovascularization (laser-induced CNV),[3],did not have any effect
same,"EGFR among binding proteins, number of hits",EGFR,did not interact
same,"PDGFRα among binding proteins, number of hits",PDGFRα,did not interact
same,"PDGFRβ among binding proteins, number of hits",PDGFRβ,did not interact
same,"KD value, VEGFR2",VEGFR2,did not bind

# Reference: patent US11299524B2, “KIF13B-derived peptide and method of inhibiting angiogenesis” (THE BOARD OF TRUSTEES OF THE UNIVERSITY OF ILLINOIS, priority 2016, dated 2022)
